Data on 7 molecules can be found in patent US20060002929A1 (published 2006).

B5: hOX40R-Fc (Fc fusion, human, UniProt P43489 29-214, looked up)
chain: LHCVGDTYPSNDRCCHECRPGNGMVSRCSRSQNTVCRPCGPGFYNDVVSSKPCKPCTWCNLRSGSERKQLCTATQDTVCRCRAGTQPLDSYKPGVDCAPCPPGHFSPGDNQACKPWTNCTLAGKHTLQPASNSSDAICEDRDPPATQPQETQGPPARPITVQPTEAWPRTSQGPSTRPVEVPGGRA
notes: Defined as 'the human IgG Fc domain fused to the human OX40 receptor'; also called hFc-OX40R; HFc-OX40R; not shown: Fc domain of human IgG
B7: Human Fc-OX40L (Fc fusion, UniProt P23510 51-183, looked up)
chain: QVSHRYPRIQSIKVQFTEYKKEKGFILTSQKEDEIMKVQNNSVIINCDGFYLISLKGYFSQEVNISLHYQKDEEPLFQLKKVRSVNSLMVASLTYKDKVYLNVTTDNTSLDDFHVNGGELILIHQNPGEFCVL
notes: Defined as 'the Fc domain of human IgG fused to human OX40L'; Made in 293T or COS cells; also called hFc-OX40L; HFc-OX40L; not shown: Fc domain of human IgG

The target of experiment [1] is B7. The experiment can be described thus: cell-based or functional assay.
Experiment [2] has as its target B7. Kind of experiment: BIAcore, immobilized hFc-OX40L. Background: Surface plasmon resonance follows binding to a sensor surface in real time, without labels.
Experiment [3] deals with B7. Kind of experiment: BIAcore solution equilibrium at 0.2 and 0.6 nM binder, dual-curve one-site fit (KinExA software). The protocol:
(§1) Specifically, BIACore chips were prepared as described above in Example 1, with the following modifications. HFc-OX40L was immobilized to the sensor chip at a high density of 8,000 RU. […] Samples were incubated at room temperature for at least five hours to allow samples to reach equilibrium. Samples were then injected over the immobilized hFc-OX40L surface for 30 minutes at 10 μl/min. After the sample injection, the samples were allowed to dissociate for 3 minutes, and then the surface was regenerated by injecting 8 mM glycine, pH 3.0, 1 M NaCl for 30 seconds. The binding signals, measured in RU, obtained were proportional to the free antibody in solution at equilibrium for a given concentration of ligand. The dissociation equilibrium constant (KD) was obtained from nonlinear regression analysis of the competition curves using a dual-curve one-site homogeneous binding model (KinExA software v. 2.3, Sapidyne Instruments Inc., Boise Id.).

The target in experiment [4] is T1, 018-muOX40L (mouse, UniProt P43488).
T1 construct: also called mouse OX40L
T1 sequence (bead-bound control antigen, looked up): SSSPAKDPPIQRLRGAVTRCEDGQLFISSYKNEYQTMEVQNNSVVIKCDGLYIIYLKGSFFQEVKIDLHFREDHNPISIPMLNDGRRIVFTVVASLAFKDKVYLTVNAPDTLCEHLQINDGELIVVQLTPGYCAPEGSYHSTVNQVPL
Kind of experiment: Luminex bead assay: antigen loaded on biotin beads, antibody titrated, detection anti-huIgG-PE [panel Ab F].

The target in experiment [5] is B7. Kind of experiment: BIAcore solution equilibrium: 0.2 nM antibody pre-mixed with 20-0.005 nM hFc-OX40L, free antibody read on immobilized hFc-OX40L. As for the experimental part: The binding equilibrium of four of the antibodies was assessed on a BIACore chip as described above in Example 1 with the following modifications. HFc-OX40L was immobilized to the sensor chip at a high density of 8,000 RU. Serial 2.5-fold dilutions of hFc-OX40L were prepared in sample buffer so that the final concentration of hFc-OX40L, once mixed with an anti-OX40L antibody, ranged between 20 nM to 0.005 nM. Monoclonal anti-OX40L antibody candidates were mixed with each hFc-OX40L dilution in a total of 400 μl so that the final concentration of monoclonal antibody was 0.2 nM. Samples were incubated at room temperature for at least five hours to allow samples to reach equilibrium. Samples were then injected over the immobilized hFc-OX40L surface for 30 minutes at 10 μl/min. After the sample injection, the samples were allowed to dissociate for 3 minutes, and then the surface was regenerated by injecting 8 mM glycine, pH 3.0, 1 M NaCl for 30 seconds. The binding signals obtained were proportional to the free antibody in solution at equilibrium for a given concentration of ligand. Plotting the binding signal versus ligand concentration, and using the scientific graphing software program GraphPad Prizm, the EC₅₀ values for each antibody at a given concentration in the presence of varying concentrations of hFc-OX40L were calculated.

The target of experiment [6] is T1, 018-muOX40L. The experiment can be described thus: Luminex bead assay: antigen loaded on biotin beads, antibody titrated, detection anti-huIgG-PE [panel Ab C].
Experiment [7] concerns the target B5. The experiment can be described thus: BIAcore solution equilibrium at 0.2 and 0.6 nM binder, dual-curve one-site fit (KinExA software). As for the experimental part:
as §1

B1: Ab B (antibody, V domains shown)
VH: QVQLQESGPGLVKPSETLSLTCTVSGGSISTYYWNWIRQPAGKGLEWIGRIYISGSTNYNPSLKSRVTMSVDTSKNQFSLKLSSVTAADTAVYYCARDRVDIVATKGHYYYGMDVWGQGTTVTVSS
VL: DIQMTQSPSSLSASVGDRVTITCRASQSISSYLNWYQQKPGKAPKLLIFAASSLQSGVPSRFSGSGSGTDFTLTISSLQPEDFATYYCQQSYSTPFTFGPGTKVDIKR
notes: Human anti-OX40L monoclonal antibody
B1: in experiment [1], the “IL-2 Inhibition (IC50 [nM])” value is 0.49 nM. A half-maximal effect in experiment [2] (EC50) was put at 0.6 nM.

B2: Ab A (antibody, V domains shown)
VH: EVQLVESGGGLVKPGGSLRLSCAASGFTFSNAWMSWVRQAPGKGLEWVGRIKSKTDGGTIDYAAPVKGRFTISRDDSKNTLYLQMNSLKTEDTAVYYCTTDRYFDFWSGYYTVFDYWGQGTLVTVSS
VL: DIQMTQSPSSLSASVGDRVTITCRASQGISNHLVWYQQKVGKVPKLLIYAASTLQSGVPSRFSGSGSGTDFTLTISSLQPEDVATYYCQKFNSAPFTFGPGTKVDIKR
notes: Human anti-OX40L monoclonal antibody from transgenic mice
As for B2, the “IL-2 Inhibition (IC50 [nM])” value in experiment [1] was 0.32 nM. In experiment [2], this molecule displayed an EC50 of 1 nM.

B3: Ab F (antibody, V domains shown)
VH: EVQLVESGGGLVKPGGSLRLSCAASGFTFSNAWMSWVRQAPGKGLEWVGRIKRKTDGGTIDYAAPVKGRFTISRADSKNTLFLQMNSLITEDTAVYYCTISYYYDYSGYYYVDHWGQGTLVTVSS
VL: DIQMTQSPSSLSASVGDRVTITCRASQGISNHLVWYQQKPGKVPKLLIYAASTLQSGVPSRFSGSGSGTDFTLTISSLQPEDVATYYCQKYNSAPLTFGGGTKVEIKR
notes: as for B1
As to B3, the affinity in experiment [3], expressed as Kd, was 0.12 nM. The binding result in experiment [4] is listed as “no binding (tested: 100 nM)”. This molecule returned a 50% effective concentration (EC50) in experiment [5] of 0.402 nM.

B4: Ab E (antibody, V domains shown)
VH: EVQLVESGGGLVKPGGSLRLSCAASGFTFSNAWMSWVRQAPGKGLEWVGRIKRKTDGGTIDYAAPVKGRFTISRADSKNTLFLQMNSLITEDTAVYYCTISYYYDYSGYYYVDHWGQGTLVTVSS
VL: DIQMTQSPSSLSASVGDRVTITCRASQGISNHLVWYQQKPGKVPKLLIYAASTLQSGVPSRFSGSGSGTDFTLTISSLQPEDVATYYCQKYNSAPLTFGGGTKVEIKR
notes: as for B1
Consider B4, for which the “IL-2 Inhibition (IC50 [nM])” value in experiment [1] was 0.58 nM. For the same molecule, the results for the concentration for a half-maximal effect (EC50) in experiment [2] and in experiment [5] were 0.69 nM and 0.686 nM, respectively.
On to B5, for which the “IL-2 Inhibition (IC50 [nM])” value in experiment [1] came out at 5.2 nM. For the same molecule, the concentration giving a half-maximal response (EC50) in experiment [2] came to 1 nM.

B6: Ab C (antibody, V domains shown)
VH: QVQLVESGGGVVQPGRSLRLSCAASGFTFSFYGMHWVRQAPGKGLEWVAVIWYDGSNKYYADSVKGRFTISRDNSKNTLYLQMNSLRAEDTAVYYCARGGYDYVWGSYRRNSDFDYWGQGTLVTVSS
VL: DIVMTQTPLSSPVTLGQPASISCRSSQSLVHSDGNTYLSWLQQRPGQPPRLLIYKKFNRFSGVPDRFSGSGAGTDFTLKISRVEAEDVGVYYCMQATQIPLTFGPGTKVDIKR
notes: as for B1
Take B6: in experiment [1], the “IL-2 Inhibition (IC50 [nM])” value amounted to 2 nM. The values for the 50% effective concentration (EC50) in experiment [2] and in experiment [5] were 0.1 nM and 0.101 nM, respectively. Further, the equilibrium dissociation constant (Kd) in experiment [3] was 0.033 nM. Moreover, the binding result in experiment [6] was “no binding (tested: 100 nM)”.
Consider B7, for which, in experiment [7], the dissociation constant Kd was 1 nM.

A word on the EC50: it is the concentration that produces a half-maximal response. By Kd is commonly meant the equilibrium constant for the complex coming apart.
